Experimental data: article PMC12566272

Biological target: T1, FucR (Cj0480c), IclR-type regulator (Campylobacter jejuni NCTC 11168) (UniProt Q0PB33)
T1 sequence: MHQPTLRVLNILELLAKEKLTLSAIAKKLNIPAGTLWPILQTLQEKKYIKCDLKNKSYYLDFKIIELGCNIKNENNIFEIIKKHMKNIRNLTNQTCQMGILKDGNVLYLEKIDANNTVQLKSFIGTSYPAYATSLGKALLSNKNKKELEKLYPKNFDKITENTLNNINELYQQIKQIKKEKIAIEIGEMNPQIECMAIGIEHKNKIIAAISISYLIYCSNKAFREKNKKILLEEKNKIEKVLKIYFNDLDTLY
Assay: EMSA
Conditions: 50 mM Tris-HCl, 150 mM KCl, 10 mM MgCl2, pH 7.4, room temperature, 1 h; 4-20% gradient PAGE

## GCTGATGCATATTGTCTTTATCCTTATTTTATTTTTATAAATTTTAGCATATTTTTTACTTTTAGTAACATAAAATCATAATTTTTATTATTTATTAATTTTAATATTTTTTTTGTAAAAATTGGCAGTTAATAAGAATAAAATACGAATTTTTACCAAGTTAACAGCTTGATTTTTTTACAAATATTTTGTTATATTTTTTGTATATAAATATATTTTTGTATATACGAAAGGAAAAAAATGGGAATTTTAAAAGGAACTTTACCGGCTTTACTTAC (double strand) [PR2 (fucose operon) promoter fragment]
  binding: binds
